Biological target: T1, Human CD137 ECD (human)
T1 construct: entry includes C-terminal His-tag and biotin acceptor peptide; also called human CD137 extracellular domain; 4-1BB
Assay: Biacore SPR, vs parent H183/L072

T1 sequence (chain, as listed by the source limits assumed): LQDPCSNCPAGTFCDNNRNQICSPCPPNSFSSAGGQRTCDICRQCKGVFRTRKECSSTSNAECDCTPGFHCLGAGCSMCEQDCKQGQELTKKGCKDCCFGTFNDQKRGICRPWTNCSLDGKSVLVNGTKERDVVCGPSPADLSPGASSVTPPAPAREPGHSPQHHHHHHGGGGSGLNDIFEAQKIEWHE

| Binder | fold change of affinity |
| --- | --- |
| H183/L072 VL H27dQ (antibody, name in Kabat numbering, V domains shown, Dual-Ig) VH: QVQLVESGGGLVQPGRSLRLSCAASGFTFSNAWMHWVRQAPGKGLEWVAQIKDKGNAYAAYYAPSVKGRFTISRDDSKNSIYLQMNSLKTEDTAVYYCHYVHYASASTVLPAFGVDAWGQGTTVTVSS VL: DIVMTQSPLSLPVTPGEPASISCQASQELVQMNRNTYLHWYQQKPGQAPRLLIYKVSNRFPGVPDRFSGSGSGTDFTLKISRVEAEDVGVYYCAQGTSVPFTFGQGTKLEIK | 0.6 fold |
| H183/L072 VL K50A (antibody, name in Kabat numbering, V domains shown, Dual-Ig) VH: QVQLVESGGGLVQPGRSLRLSCAASGFTFSNAWMHWVRQAPGKGLEWVAQIKDKGNAYAAYYAPSVKGRFTISRDDSKNSIYLQMNSLKTEDTAVYYCHYVHYASASTVLPAFGVDAWGQGTTVTVSS VL: DIVMTQSPLSLPVTPGEPASISCQASQELVHMNRNTYLHWYQQKPGQAPRLLIYAVSNRFPGVPDRFSGSGSGTDFTLKISRVEAEDVGVYYCAQGTSVPFTFGQGTKLEIK | 0.1 fold |
| H183/L072 VL K50G (antibody, name in Kabat numbering, V domains shown, Dual-Ig) VH: QVQLVESGGGLVQPGRSLRLSCAASGFTFSNAWMHWVRQAPGKGLEWVAQIKDKGNAYAAYYAPSVKGRFTISRDDSKNSIYLQMNSLKTEDTAVYYCHYVHYASASTVLPAFGVDAWGQGTTVTVSS VL: DIVMTQSPLSLPVTPGEPASISCQASQELVHMNRNTYLHWYQQKPGQAPRLLIYGVSNRFPGVPDRFSGSGSGTDFTLKISRVEAEDVGVYYCAQGTSVPFTFGQGTKLEIK | 0 fold |
| H183/L072 VL K50H (antibody, name in Kabat numbering, V domains shown, Dual-Ig) VH: QVQLVESGGGLVQPGRSLRLSCAASGFTFSNAWMHWVRQAPGKGLEWVAQIKDKGNAYAAYYAPSVKGRFTISRDDSKNSIYLQMNSLKTEDTAVYYCHYVHYASASTVLPAFGVDAWGQGTTVTVSS VL: DIVMTQSPLSLPVTPGEPASISCQASQELVHMNRNTYLHWYQQKPGQAPRLLIYHVSNRFPGVPDRFSGSGSGTDFTLKISRVEAEDVGVYYCAQGTSVPFTFGQGTKLEIK | 0 fold |
| H183/L072 VL K50I (antibody, name in Kabat numbering, V domains shown, Dual-Ig) VH: QVQLVESGGGLVQPGRSLRLSCAASGFTFSNAWMHWVRQAPGKGLEWVAQIKDKGNAYAAYYAPSVKGRFTISRDDSKNSIYLQMNSLKTEDTAVYYCHYVHYASASTVLPAFGVDAWGQGTTVTVSS VL: DIVMTQSPLSLPVTPGEPASISCQASQELVHMNRNTYLHWYQQKPGQAPRLLIYIVSNRFPGVPDRFSGSGSGTDFTLKISRVEAEDVGVYYCAQGTSVPFTFGQGTKLEIK | 2.5 fold |
| H183/L072 VL H27dR (antibody, name in Kabat numbering, V domains shown, Dual-Ig) VH: QVQLVESGGGLVQPGRSLRLSCAASGFTFSNAWMHWVRQAPGKGLEWVAQIKDKGNAYAAYYAPSVKGRFTISRDDSKNSIYLQMNSLKTEDTAVYYCHYVHYASASTVLPAFGVDAWGQGTTVTVSS VL: DIVMTQSPLSLPVTPGEPASISCQASQELVRMNRNTYLHWYQQKPGQAPRLLIYKVSNRFPGVPDRFSGSGSGTDFTLKISRVEAEDVGVYYCAQGTSVPFTFGQGTKLEIK | 0.6 fold |
| H183/L072 VL H27dW (antibody, name in Kabat numbering, V domains shown, Dual-Ig) VH: QVQLVESGGGLVQPGRSLRLSCAASGFTFSNAWMHWVRQAPGKGLEWVAQIKDKGNAYAAYYAPSVKGRFTISRDDSKNSIYLQMNSLKTEDTAVYYCHYVHYASASTVLPAFGVDAWGQGTTVTVSS VL: DIVMTQSPLSLPVTPGEPASISCQASQELVWMNRNTYLHWYQQKPGQAPRLLIYKVSNRFPGVPDRFSGSGSGTDFTLKISRVEAEDVGVYYCAQGTSVPFTFGQGTKLEIK | 0.5 fold |
| H183/L072 VL H34M (antibody, name in Kabat numbering, V domains shown, Dual-Ig) VH: QVQLVESGGGLVQPGRSLRLSCAASGFTFSNAWMHWVRQAPGKGLEWVAQIKDKGNAYAAYYAPSVKGRFTISRDDSKNSIYLQMNSLKTEDTAVYYCHYVHYASASTVLPAFGVDAWGQGTTVTVSS VL: DIVMTQSPLSLPVTPGEPASISCQASQELVHMNRNTYLMWYQQKPGQAPRLLIYKVSNRFPGVPDRFSGSGSGTDFTLKISRVEAEDVGVYYCAQGTSVPFTFGQGTKLEIK | 0 fold |
| H183/L072 VL H27dT (antibody, name in Kabat numbering, V domains shown, Dual-Ig) VH: QVQLVESGGGLVQPGRSLRLSCAASGFTFSNAWMHWVRQAPGKGLEWVAQIKDKGNAYAAYYAPSVKGRFTISRDDSKNSIYLQMNSLKTEDTAVYYCHYVHYASASTVLPAFGVDAWGQGTTVTVSS VL: DIVMTQSPLSLPVTPGEPASISCQASQELVTMNRNTYLHWYQQKPGQAPRLLIYKVSNRFPGVPDRFSGSGSGTDFTLKISRVEAEDVGVYYCAQGTSVPFTFGQGTKLEIK | 0.6 fold |
| H183/L072 VL K50E (antibody, name in Kabat numbering, V domains shown, Dual-Ig) VH: QVQLVESGGGLVQPGRSLRLSCAASGFTFSNAWMHWVRQAPGKGLEWVAQIKDKGNAYAAYYAPSVKGRFTISRDDSKNSIYLQMNSLKTEDTAVYYCHYVHYASASTVLPAFGVDAWGQGTTVTVSS VL: DIVMTQSPLSLPVTPGEPASISCQASQELVHMNRNTYLHWYQQKPGQAPRLLIYEVSNRFPGVPDRFSGSGSGTDFTLKISRVEAEDVGVYYCAQGTSVPFTFGQGTKLEIK | 0 fold |
| H183/L072 VL K50D (antibody, name in Kabat numbering, V domains shown, Dual-Ig) VH: QVQLVESGGGLVQPGRSLRLSCAASGFTFSNAWMHWVRQAPGKGLEWVAQIKDKGNAYAAYYAPSVKGRFTISRDDSKNSIYLQMNSLKTEDTAVYYCHYVHYASASTVLPAFGVDAWGQGTTVTVSS VL: DIVMTQSPLSLPVTPGEPASISCQASQELVHMNRNTYLHWYQQKPGQAPRLLIYDVSNRFPGVPDRFSGSGSGTDFTLKISRVEAEDVGVYYCAQGTSVPFTFGQGTKLEIK | 0 fold |
| H183/L072 VL K50M (antibody, name in Kabat numbering, V domains shown, Dual-Ig) VH: QVQLVESGGGLVQPGRSLRLSCAASGFTFSNAWMHWVRQAPGKGLEWVAQIKDKGNAYAAYYAPSVKGRFTISRDDSKNSIYLQMNSLKTEDTAVYYCHYVHYASASTVLPAFGVDAWGQGTTVTVSS VL: DIVMTQSPLSLPVTPGEPASISCQASQELVHMNRNTYLHWYQQKPGQAPRLLIYMVSNRFPGVPDRFSGSGSGTDFTLKISRVEAEDVGVYYCAQGTSVPFTFGQGTKLEIK | 2.9 fold |

Next, values leading:

| fold change of affinity | Binder |
| --- | --- |
| 0.1 fold | H183/L072 VL K50F (antibody, name in Kabat numbering, V domains shown, Dual-Ig) VH: QVQLVESGGGLVQPGRSLRLSCAASGFTFSNAWMHWVRQAPGKGLEWVAQIKDKGNAYAAYYAPSVKGRFTISRDDSKNSIYLQMNSLKTEDTAVYYCHYVHYASASTVLPAFGVDAWGQGTTVTVSS VL: DIVMTQSPLSLPVTPGEPASISCQASQELVHMNRNTYLHWYQQKPGQAPRLLIYFVSNRFPGVPDRFSGSGSGTDFTLKISRVEAEDVGVYYCAQGTSVPFTFGQGTKLEIK |
| 0 fold | H183/L072 VL H34V (antibody, name in Kabat numbering, V domains shown, Dual-Ig) VH: QVQLVESGGGLVQPGRSLRLSCAASGFTFSNAWMHWVRQAPGKGLEWVAQIKDKGNAYAAYYAPSVKGRFTISRDDSKNSIYLQMNSLKTEDTAVYYCHYVHYASASTVLPAFGVDAWGQGTTVTVSS VL: DIVMTQSPLSLPVTPGEPASISCQASQELVHMNRNTYLVWYQQKPGQAPRLLIYKVSNRFPGVPDRFSGSGSGTDFTLKISRVEAEDVGVYYCAQGTSVPFTFGQGTKLEIK |
| 0.5 fold | H183/L072 VL H27dY (antibody, name in Kabat numbering, V domains shown, Dual-Ig) VH: QVQLVESGGGLVQPGRSLRLSCAASGFTFSNAWMHWVRQAPGKGLEWVAQIKDKGNAYAAYYAPSVKGRFTISRDDSKNSIYLQMNSLKTEDTAVYYCHYVHYASASTVLPAFGVDAWGQGTTVTVSS VL: DIVMTQSPLSLPVTPGEPASISCQASQELVYMNRNTYLHWYQQKPGQAPRLLIYKVSNRFPGVPDRFSGSGSGTDFTLKISRVEAEDVGVYYCAQGTSVPFTFGQGTKLEIK |
| 0 fold | H183/L072 VL H34P (antibody, name in Kabat numbering, V domains shown, Dual-Ig) VH: QVQLVESGGGLVQPGRSLRLSCAASGFTFSNAWMHWVRQAPGKGLEWVAQIKDKGNAYAAYYAPSVKGRFTISRDDSKNSIYLQMNSLKTEDTAVYYCHYVHYASASTVLPAFGVDAWGQGTTVTVSS VL: DIVMTQSPLSLPVTPGEPASISCQASQELVHMNRNTYLPWYQQKPGQAPRLLIYKVSNRFPGVPDRFSGSGSGTDFTLKISRVEAEDVGVYYCAQGTSVPFTFGQGTKLEIK |
| 0.6 fold | H183/L072 VL H27dS (antibody, name in Kabat numbering, V domains shown, Dual-Ig) VH: QVQLVESGGGLVQPGRSLRLSCAASGFTFSNAWMHWVRQAPGKGLEWVAQIKDKGNAYAAYYAPSVKGRFTISRDDSKNSIYLQMNSLKTEDTAVYYCHYVHYASASTVLPAFGVDAWGQGTTVTVSS VL: DIVMTQSPLSLPVTPGEPASISCQASQELVSMNRNTYLHWYQQKPGQAPRLLIYKVSNRFPGVPDRFSGSGSGTDFTLKISRVEAEDVGVYYCAQGTSVPFTFGQGTKLEIK |
| 0.7 fold | H183/L072 VL H27dV (antibody, name in Kabat numbering, V domains shown, Dual-Ig) VH: QVQLVESGGGLVQPGRSLRLSCAASGFTFSNAWMHWVRQAPGKGLEWVAQIKDKGNAYAAYYAPSVKGRFTISRDDSKNSIYLQMNSLKTEDTAVYYCHYVHYASASTVLPAFGVDAWGQGTTVTVSS VL: DIVMTQSPLSLPVTPGEPASISCQASQELVVMNRNTYLHWYQQKPGQAPRLLIYKVSNRFPGVPDRFSGSGSGTDFTLKISRVEAEDVGVYYCAQGTSVPFTFGQGTKLEIK |
| 1 fold | H183/L072 VL K50L (antibody, name in Kabat numbering, V domains shown, Dual-Ig) VH: QVQLVESGGGLVQPGRSLRLSCAASGFTFSNAWMHWVRQAPGKGLEWVAQIKDKGNAYAAYYAPSVKGRFTISRDDSKNSIYLQMNSLKTEDTAVYYCHYVHYASASTVLPAFGVDAWGQGTTVTVSS VL: DIVMTQSPLSLPVTPGEPASISCQASQELVHMNRNTYLHWYQQKPGQAPRLLIYLVSNRFPGVPDRFSGSGSGTDFTLKISRVEAEDVGVYYCAQGTSVPFTFGQGTKLEIK |
| 0.1 fold | H183/L072 VL H34L (antibody, name in Kabat numbering, V domains shown, Dual-Ig) VH: QVQLVESGGGLVQPGRSLRLSCAASGFTFSNAWMHWVRQAPGKGLEWVAQIKDKGNAYAAYYAPSVKGRFTISRDDSKNSIYLQMNSLKTEDTAVYYCHYVHYASASTVLPAFGVDAWGQGTTVTVSS VL: DIVMTQSPLSLPVTPGEPASISCQASQELVHMNRNTYLLWYQQKPGQAPRLLIYKVSNRFPGVPDRFSGSGSGTDFTLKISRVEAEDVGVYYCAQGTSVPFTFGQGTKLEIK |
| 0 fold | H183/L072 VL H34I (antibody, name in Kabat numbering, V domains shown, Dual-Ig) VH: QVQLVESGGGLVQPGRSLRLSCAASGFTFSNAWMHWVRQAPGKGLEWVAQIKDKGNAYAAYYAPSVKGRFTISRDDSKNSIYLQMNSLKTEDTAVYYCHYVHYASASTVLPAFGVDAWGQGTTVTVSS VL: DIVMTQSPLSLPVTPGEPASISCQASQELVHMNRNTYLIWYQQKPGQAPRLLIYKVSNRFPGVPDRFSGSGSGTDFTLKISRVEAEDVGVYYCAQGTSVPFTFGQGTKLEIK |

Reference: patent US20210388087A1 (Chugai, published 2021)
